From patent US20090054323A1 (published 2009) come the findings set out here.

The IC50 is the point on the concentration scale where inhibition reaches its midpoint. The low end stands for higher potency, the high end for lower potency.

B1: mPEG5K-(L1-7 Peptide) (peptide)
peptide: C(methoxy‑poly(ethylene glycol)‑maleimide 5 kDa)GGGGGAQTNFMPMDDLEQRLYEQFILQQGLE
B2: PEO4(L1-7 Peptide)2 (peptide)
peptide: C(1,11‑bis‑maleimidotetraethyleneglycol)GGGGGAQTNFMPMDDLEQRLYEQFILQQGLE
modifications: also: two peptides joined through Cys1 by 1,11-bis-maleimidotetraethyleneglycol, one on each end
B3: L1-7 Peptide (peptide)
peptide: CGGGGGAQTNFMPMDDLEQRLYEQFILQQGLE
notes: Synthetic peptide with N-terminal Cys and 5Gly linker; also called L1-7(unPEGylated Peptide); L1-7 free peptide
B4: PEG3.4K(L1-7 Peptide)2 (peptide)
peptide: C(poly(ethylene glycol)‑bis‑maleimide 3.4 kDa)GGGGGAQTNFMPMDDLEQRLYEQFILQQGLE
modifications: also: two peptides joined through Cys1 by PEG-bis-maleimide 3.4 kDa, one on each end
B5: TN8-14 (peptide)
peptide: HQICKWDPWTCKHW
notes: Peptide from phage display selection on Ang-2
B6: TN8-8 (peptide)
peptide: KRPCEEMWGGCNYD
notes: as for B5
B7: TN8-Con4 (peptide)
peptide: QEECEWDPWTCEHM
B8: TN12-9 (peptide)
peptide: FDYCEGVEDPFTFGCDNH
notes: as for B5
B9: C17 (peptide)
peptide: QYGCDGFLYGCMIN
notes: as for B5
B10: L1 (peptide)
peptide: KFNPLDELEETLYEQFTFQQ
notes: as for B5
B11: TN8-Con1 (peptide)
peptide: KRPCEEIFGGCTYQ

Where no end group is shown, it is not given here.

In one assay the target is T1, human Ang-2 (human, UniProt O15123 19-496, limits assumed).
T1 construct: Sources differ by assay: R&D Systems 623-AN (mixture of 2 truncated versions) for initial screening; also called hAng-2; huAng-2
T1 sequence (looked up): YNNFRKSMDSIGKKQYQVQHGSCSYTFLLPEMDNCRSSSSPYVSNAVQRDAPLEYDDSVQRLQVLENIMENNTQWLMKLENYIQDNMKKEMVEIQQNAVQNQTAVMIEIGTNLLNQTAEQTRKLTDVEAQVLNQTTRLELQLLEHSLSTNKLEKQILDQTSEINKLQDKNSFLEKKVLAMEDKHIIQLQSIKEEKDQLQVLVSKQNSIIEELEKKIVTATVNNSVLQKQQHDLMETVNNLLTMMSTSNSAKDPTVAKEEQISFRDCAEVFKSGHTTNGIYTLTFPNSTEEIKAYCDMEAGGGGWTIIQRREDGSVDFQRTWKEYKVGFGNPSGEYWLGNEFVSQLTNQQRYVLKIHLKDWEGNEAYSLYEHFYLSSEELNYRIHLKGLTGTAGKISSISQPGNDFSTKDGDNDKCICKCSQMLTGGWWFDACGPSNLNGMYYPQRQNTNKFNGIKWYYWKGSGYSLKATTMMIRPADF
The assay can be described thus: neutralization ELISA vs Tie-2-Fc. (In an ELISA, binding on a coated surface is turned into a signal by an enzyme label.)
As for B1, 11.7 nM corresponded to half-maximal inhibition (IC50).
B2 yielded an IC50 of 0.064 nM.
For B3, the IC50 came out at 0.49 nM.
The same measure, in the same setting: in the case of B4 it was 0.058 nM.

In the next assay the target is T1, human Ang-2. The assay can be described thus: phage display selection and phage ELISA on Ang-2. On the procedure: Three filamentous phage libraries, designated as “TN8-IX” (5×10⁹ independent transformants), “TN12-I” (1.4×10⁹ independent transformants), and “Linear” (2.3×10⁹ independent transformants) (all from Dyax Corp.), were used to select for Ang-2 binding phage. […] For all three libraries, the phage from the first round of selection were eluted only in a non-specific manner for further rounds of selection.
An XL-1 Blue MRF′ culture was grown until OD₆₀₀ reached about 0.5. About thirty μl of this culture was aliquoted into each well of a 96-well microtiter plate. About 10 μl of eluted phage (section 4) was added to each well and allowed to infect bacteria for about 15 minutes at room temperature. About 100 μL of LB media containing approximately 12.5 μg/ml of tetracycline and approximately 50 μg/ml of ampicillin were added to each well. The microtiter plate was then incubated with shaking overnight at about 37° C. The recombinant Ang-2 protein (about 1 μg/ml in PBS) was allowed to bind to the 96 well Maxisorp plates (NUNC) overnight at about 4° C. As a control, the pure streptavidin was coated onto a separate Maxisorp plate at about 2 μg/ml in PBS.
On the following day, liquid in the protein coated Maxisorp plates was discarded, and each well was blocked with about 300 μl of 5% milk solution at about 4° C. overnight (alternatively, 1 hour at room temperature). The milk solution was then discarded, and the wells were washed three times with the PBST solution. After the last washing step, about 50 μl of PBST-4% milk was added to each well of the protein coated Maxisorp plates.
Regarding B5, the binding result is “binds”.
Same read-out and setting: in the case of B6 it was “binds”; in that of B7, “binds”; in that of B8, “binds”.
On to B9, for which the binding result is recorded as “binds”.
The same measure, in the same setting: to B10 belongs “binds”; to B11, “binds”.
